In the RNAGym collection of RNA variant scans (doi:10.1093/nar/gkz1192):

B1: CPEB3 Ribozyme (parent)
chain: UAACAGGGGGCCACAGCAGAAGCGUUCACGUCGCAGCCCCUGUCAGAUUCUGGUGAAUCUGCGAAUUCUGCUGUAUAUCUC

Variants of: B1
Assay: self-cleavage, relative activity (ratio to wild type); higher = more cleavage; in vitro, sequencing
In short: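 Relative activity compares each variant's cleaved/total read fraction with that of the unmutated ribozyme. To get these fractions, barcoded CPEB3 ribozyme libraries from rounds of error-prone PCR were transcribed with T7 RNA polymerase for 5 hours at 37°C and then given 15 min of DNase I treatment before EDTA was added. The RNAs were reverse transcribed with template switching and sequenced on Illumina, and DNA sequencing linked barcodes to variants. A minimum of 5 reads applied, and three batches were averaged.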
In the case of C40A U48A, the self-cleavage is reported as 0.15.
Variant C39U U43A has a self-cleavage of 1.12.
C39U U43C showed a self-cleavage of 0.35.
With C38A A47G the self-cleavage was 0.2.
Variant C38A A47C has a self-cleavage of 0.5.
Variant C38A C40U has a self-cleavage of 0.22.
C38A C40A showed a self-cleavage of 0.05.
Work on C40A U66C yielded a self-cleavage of 0.18.
In the case of C39A U58C, the self-cleavage is reported as 0.19.
With C37U C40G the self-cleavage was 0.22.
C37U C40A gave a self-cleavage of 0.21.
For C39U U51A, the self-cleavage was 1.06.
C39U U51G gave a self-cleavage of 0.89.
Variant C39U U60A has a self-cleavage of 0.43.
Work on C39U U60C yielded a self-cleavage of 0.39.
For C40A U43A, the self-cleavage was 0.45.
With C40A U43C the self-cleavage was 0.14.
For C37U U67C, the self-cleavage was 0.22.
For C37U C71U, the self-cleavage was 0.38.
In the case of C37U C71G, the self-cleavage is reported as 0.21.
With C37U U80C the self-cleavage was 0.74.
Work on C37U U80A yielded a self-cleavage of 0.99.
In the case of C40A A77G, the self-cleavage is reported as 0.28.
Work on C37U U49A yielded a self-cleavage of 0.38.
In the case of C37U U49C, the self-cleavage is reported as 0.37.
In the case of C39A A77G, the self-cleavage is reported as 0.22.
Work on C39A A77U yielded a self-cleavage of 0.32.
For C39A U78A, the self-cleavage was 0.43.
C39A U78C gave a self-cleavage of 0.26.
C38U A56G showed a self-cleavage of 0.43.
Work on C39U C79U yielded a self-cleavage of 1.02.
C38A U48A showed a self-cleavage of 0.36.
Variant C37U U54A has a self-cleavage of 0.82.
C37U U54C showed a self-cleavage of 0.79.
For C38A G63U, the self-cleavage was 0.1.
Work on C39A G70A yielded a self-cleavage of 0.11.
Work on C37U C79U yielded a self-cleavage of 1.03.
With C37U C79A the self-cleavage was 1.11.
Variant C39G A45G has a self-cleavage of 0.29.
With C37U U72C the self-cleavage was 0.79.
Work on C37U U72A yielded a self-cleavage of 0.27.
C38A U74G showed a self-cleavage of 0.27.
Work on C38U U80G yielded a self-cleavage of 1.03.
Work on C38U U80A yielded a self-cleavage of 0.96.
With C38U U80C the self-cleavage was 1.01.
Work on C39U A64U yielded a self-cleavage of 0.36.
Work on C37G U74A yielded a self-cleavage of 1.13.
C37G U74C gave a self-cleavage of 0.9.
C40A A75G showed a self-cleavage of 0.47.
With C40A A75U the self-cleavage was 0.43.
For C40A U78A, the self-cleavage was 0.22.
Variant C40A U78C has a self-cleavage of 0.18.
For C37G U78C, the self-cleavage was 0.68.
In the case of C38A, the self-cleavage is reported as 0.3.
C38U gave a self-cleavage of 0.9.
In the case of C38G, the self-cleavage is reported as 0.26.
C40G U54C gave a self-cleavage of 0.2.
Work on C39U U49C yielded a self-cleavage of 0.31.
C40A U54A gave a self-cleavage of 0.29.
Variant C40A U54C has a self-cleavage of 0.28.
With C39U A45G the self-cleavage was 0.69.
With C39U A45U the self-cleavage was 0.26.
With C38A A64C the self-cleavage was 0.15.
Work on C38A A64U yielded a self-cleavage of 0.09.
In the case of C39G U48A, the self-cleavage is reported as 0.15.
With C37U G55U the self-cleavage was 0.88.
Variant C38G A77U has a self-cleavage of 0.31.
In the case of C38U G63A, the self-cleavage is reported as 0.6.
C39U U48C gave a self-cleavage of 0.42.
C37U G61A showed a self-cleavage of 0.21.
C38G A57G showed a self-cleavage of 0.23.
C39G A47G showed a self-cleavage of 0.13.
Variant C38G U80C has a self-cleavage of 0.56.
Work on C38G U80A yielded a self-cleavage of 0.26.
In the case of C38U U76C, the self-cleavage is reported as 1.01.
C38U U76A showed a self-cleavage of 1.16.
With C39A U69A the self-cleavage was 0.22.
Work on C39A U69G yielded a self-cleavage of 0.14.
For C39A U69C, the self-cleavage was 0.16.
C39A A64U gave a self-cleavage of 0.22.
Work on C39A A64G yielded a self-cleavage of 0.05.
In the case of C38A U60A, the self-cleavage is reported as 0.2.
In the case of C38A U60C, the self-cleavage is reported as 0.37.
C40A U67C showed a self-cleavage of 0.28.
For C39A C68G, the self-cleavage was 0.17.
In the case of C39U U74A, the self-cleavage is reported as 1.08.
C39U U74C gave a self-cleavage of 1.1.
Work on C40G U43C yielded a self-cleavage of 0.16.
For C39G U60A, the self-cleavage was 0.25.
Variant C38U A47G has a self-cleavage of 0.66.
C40G A77G gave a self-cleavage of 0.08.
C37U U51A showed a self-cleavage of 0.58.
For C37U U51C, the self-cleavage was 0.67.
In the case of C37U U51G, the self-cleavage is reported as 0.61.
C38U U78C gave a self-cleavage of 0.67.
For C38U U78A, the self-cleavage was 1.17.
Work on C38A U41C yielded a self-cleavage of 0.43.
C38A U41A gave a self-cleavage of 0.19.
With C38G U41C the self-cleavage was 0.19.
Variant C38A U54A has a self-cleavage of 0.56.
C38A U54C gave a self-cleavage of 0.29.
Work on C38U U67A yielded a self-cleavage of 0.41.
In the case of C38U U72A, the self-cleavage is reported as 0.37.
Work on C38U U72C yielded a self-cleavage of 1.01.
C39A G73C gave a self-cleavage of 0.76.
For C40A U41A, the self-cleavage was 0.1.
With C40A U41C the self-cleavage was 0.36.
With C40A U58C the self-cleavage was 0.1.
For C38U U43C, the self-cleavage was 0.28.
Variant C37U A45U has a self-cleavage of 0.4.
For C37U A45G, the self-cleavage was 0.5.
C37U A45C showed a self-cleavage of 0.29.
Variant C38U A65G has a self-cleavage of 0.32.
C39G U80A showed a self-cleavage of 0.09.
Work on C39A A45G yielded a self-cleavage of 0.33.
C38U U49C gave a self-cleavage of 0.34.
In the case of C38U U49G, the self-cleavage is reported as 0.37.
With C37U G52A the self-cleavage was 0.93.
C39G U49C gave a self-cleavage of 0.12.
C38A G42C gave a self-cleavage of 0.28.
In the case of C39G C50G, the self-cleavage is reported as 0.1.
C38U G53A showed a self-cleavage of 0.89.
In the case of C38U A57U, the self-cleavage is reported as 0.39.
In the case of C38U A57G, the self-cleavage is reported as 0.39.
In the case of C39U U78A, the self-cleavage is reported as 0.89.
Work on C39U U80C yielded a self-cleavage of 0.8.
C38U G70U gave a self-cleavage of 0.38.
For C38A U69A, the self-cleavage was 0.19.
Work on C39A A57C yielded a self-cleavage of 0.14.
In the case of C39A A57G, the self-cleavage is reported as 0.3.
C38A U43A gave a self-cleavage of 0.34.
C39U A57G gave a self-cleavage of 0.27.
Variant C38A U72C has a self-cleavage of 0.53.
In the case of C38A U72G, the self-cleavage is reported as 0.17.
With C38A U72A the self-cleavage was 0.34.
Variant C40A U69C has a self-cleavage of 0.25.
With C40A U69G the self-cleavage was 0.11.
Variant C40A C81G has a self-cleavage of 0.07.
Variant C39U G46U has a self-cleavage of 0.11.
Variant C40A A65G has a self-cleavage of 0.31.
For C38U U74C, the self-cleavage was 1.26.
C38U U74A gave a self-cleavage of 1.1.
For C38A U67A, the self-cleavage was 0.17.
Variant C37U A64U has a self-cleavage of 0.27.
With C37U A64G the self-cleavage was 0.6.
Variant C38U A45U has a self-cleavage of 0.35.
For C38U A45G, the self-cleavage was 0.58.
C40A U74A showed a self-cleavage of 0.3.
For C39A C40U, the self-cleavage was 0.38.
In the case of C38A U80C, the self-cleavage is reported as 0.41.
In the case of C38A U80A, the self-cleavage is reported as 0.11.
In the case of C38U U51A, the self-cleavage is reported as 0.46.
C37U U43C showed a self-cleavage of 0.31.
For C37U U43G, the self-cleavage was 0.19.
In the case of C39A U80A, the self-cleavage is reported as 0.3.
C39A U80C showed a self-cleavage of 0.26.
In the case of C40G A56U, the self-cleavage is reported as 0.42.
C37U gave a self-cleavage of 0.79.
For C39A U54C, the self-cleavage was 0.25.
With C39A U54A the self-cleavage was 0.16.
In the case of C38A A56C, the self-cleavage is reported as 0.1.
Work on C38A A56G yielded a self-cleavage of 0.26.
Work on C38A A56U yielded a self-cleavage of 0.27.
In the case of C37U A57G, the self-cleavage is reported as 0.58.
C37U U74C showed a self-cleavage of 1.12.
C37U U74A showed a self-cleavage of 1.17.
Work on C38G A64G yielded a self-cleavage of 0.2.
